Reference: paper PMC6815381, “Unravelling the diversity of glycoside hydrolase family 13 α-amylases from Lactobacillus plantarum WCFS1” (Microbial Cell Factories, 2019)

B1: Lp_0179 (Amy2), maltose-forming α-amylase (Lactiplantibacillus plantarum WCFS1) (protein)
chain: MARDTQTQLRNEMIYSVFVRNYSEAGNFAGVTADLQRIKDLGTDILWLLPINPIGEVNRKGTLGSPYAIKDYRGINPEYGTLADFKALTDRAHELGMKVMLDIVYNHTSPDSVLATEHPEWFYHDADGQLTNKVGDWSDVKDLDYGHHELWQYQIDTLLYWSQFVDGYRCDVAPLVPLDFWLEARKQVNAKYPETLWLAESAGSGFIEELRSQGYTGLSDSELYQAFDMTYDYDVFGDFKDYWQGRSTVERYVDLLQRQDATFPGNYVKMRFLENHDNARMMSLMHSKAEAVNNLTWIFMQRGIPLIYNGQEFLAEHQPSLFDRDTMVADRHGDVTPLIQKLVTIKQLPLLRAADYQLAVVEEGIVKITYRAAGEALTAWIPLKGQVTAVATKLAAGSYQNLLTDGPTEVVDGKLTVDGQPVLIKYVTNTAVTKVADQSN
notes: gene 1320 bp
B2: Lp_2757, maltogenic α-amylase (Lactiplantibacillus plantarum WCFS1) (protein)
chain: MQLAGIRHRPESEDTAVLAAHQLQVRLQTARDDVAQVEILFADSYLWQEGTTALERRIMQPGLATQGNQYWQTTLTVPTNRVVYAFLITDTIGATVGYGEGGFFDDVATNWQTVGNYFHMPYMHVSDAELPPAWVKETVWYQIFPERFANGVRQNDPANVQPWGAGRVHRDSFYGGDLPGITAHLDDLAALGVNGLYLCPIFTSPSNHKYDTIDHFEIDPHFGTKADFQALVDGAHARGMRVMLDAVFNHFGEQSPQWQDVIKNGEQSRFADWFHIHGWPVGRDPKTKRLNYETFATGAAMPKVNTQNPAVQAYLIDVTKYWIEQFGIDAWRFDVADEVDHGFWRALCGALRAIKPDVYLLGESWHSSQSLVGNGQFNAVMNYPLTQPILALFNGQLNPEDYVGKTNLELMMYRQPNQQAMFNALDTHDTPRLLTTLHGQLTKFKSALTLLMLLPGSPCIYYGTEVAMAGGADPDNRRCMNWQPDEQEQQVRQFVTRLIKFRRQQADFLATSQLTWTIDGHCLILTRTDVEQTIQGRFNLGAQAVSTVSGVSPILTAGITANEMAPGGFELTVA
notes: gene 1722 bp

Substrate: O=[N+]([O-])c1ccc(O[C@H]2O[C@H](CO)[C@@H](O[C@H]3O[C@H](CO)[C@@H](O)[C@H](O)[C@H]3O)[C@H](O)[C@H]2O)cc1
Test: purified protein
Type: biochemical, Lactiplantibacillus plantarum
Settings: 50 mM MOPS pH 7.0, 20 mM NaCl, 1 mM DTT, 30 °C, substrate 0-10 mM

Protein | Km | Vmax | kcat
B1 | 320 ± 70 µM | 0.017 µmol/min | 3.856 ± 3.33e-05 s⁻¹
B2 | 620 ± 120 µM | 0.016 µmol/min | 4.9142 ± 1.67e-05 s⁻¹
